Results taken from publication PMC7677223 (Nature microbiology, 2020).

Assays:
[1] = target: VZV capsid (MCP pORF40, SCP pORF23, Tri1 pORF20, Tri2 pORF41) (varicella-zoster virus (P-Oka strain)) (UniProt P09245); experiment: cryo-EM structure
[2] = target: the molecule itself; experiment: cryo-EM structure

Sequence of VZV capsid (MCP pORF40, SCP pORF23, Tri1 pORF20, Tri2 pORF41) (varicella-zoster virus (P-Oka strain)) (P09245 whole entry, looked up): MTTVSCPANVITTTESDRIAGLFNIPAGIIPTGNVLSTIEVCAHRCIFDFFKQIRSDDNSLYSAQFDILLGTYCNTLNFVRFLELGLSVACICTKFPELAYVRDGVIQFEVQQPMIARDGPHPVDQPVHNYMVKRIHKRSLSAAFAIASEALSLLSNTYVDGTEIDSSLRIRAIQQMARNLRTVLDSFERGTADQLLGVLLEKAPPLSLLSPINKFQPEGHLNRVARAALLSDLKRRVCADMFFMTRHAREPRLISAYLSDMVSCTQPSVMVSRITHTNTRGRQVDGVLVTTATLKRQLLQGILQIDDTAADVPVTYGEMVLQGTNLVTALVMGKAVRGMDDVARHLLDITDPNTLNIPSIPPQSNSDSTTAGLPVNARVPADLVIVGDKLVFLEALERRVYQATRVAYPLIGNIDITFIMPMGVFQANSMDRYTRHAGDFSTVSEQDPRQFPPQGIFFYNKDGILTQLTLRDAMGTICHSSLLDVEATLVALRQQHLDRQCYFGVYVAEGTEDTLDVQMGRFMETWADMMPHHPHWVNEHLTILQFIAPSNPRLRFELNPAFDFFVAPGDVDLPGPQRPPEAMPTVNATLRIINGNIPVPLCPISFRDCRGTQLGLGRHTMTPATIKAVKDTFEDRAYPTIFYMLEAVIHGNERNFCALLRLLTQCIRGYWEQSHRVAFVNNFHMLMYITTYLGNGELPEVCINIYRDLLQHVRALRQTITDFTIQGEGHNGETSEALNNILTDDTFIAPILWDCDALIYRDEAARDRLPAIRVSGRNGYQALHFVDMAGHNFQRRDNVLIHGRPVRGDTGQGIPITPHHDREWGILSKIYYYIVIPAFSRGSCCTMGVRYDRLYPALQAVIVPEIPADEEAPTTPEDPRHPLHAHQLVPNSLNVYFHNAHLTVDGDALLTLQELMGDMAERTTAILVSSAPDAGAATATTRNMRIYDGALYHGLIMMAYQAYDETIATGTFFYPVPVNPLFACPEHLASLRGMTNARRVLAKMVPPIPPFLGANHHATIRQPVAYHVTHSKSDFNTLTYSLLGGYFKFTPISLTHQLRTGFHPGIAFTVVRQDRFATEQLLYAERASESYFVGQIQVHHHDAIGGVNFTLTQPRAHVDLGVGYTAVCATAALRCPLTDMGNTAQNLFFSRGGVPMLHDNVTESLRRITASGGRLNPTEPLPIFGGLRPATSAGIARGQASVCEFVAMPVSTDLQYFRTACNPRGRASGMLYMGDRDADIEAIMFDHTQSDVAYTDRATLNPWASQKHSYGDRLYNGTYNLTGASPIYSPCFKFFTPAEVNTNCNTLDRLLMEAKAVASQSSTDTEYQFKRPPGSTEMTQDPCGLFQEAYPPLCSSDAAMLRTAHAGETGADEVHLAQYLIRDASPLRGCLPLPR

Molecule: VZV capsid-associated tegument complex (CATC)
- percent of pentons bound with CATCs [1]: 50.5%

B1: VZV small capsid protein (SCP) pORF23 (natural protein)
chain: MTQPASSRVVFDPSNPTTFSVEAIAAYTPVALIRLLNASGPLQPGHRVDIADARSIYTVGAAASAARARANHNANTIRRTAMFAETDPMTWLRPTVGLKRTFNPRIIRPQPPNPSMSLGISGPTILPQKTQSADQSALQQPAALAFSGSSPQHPPPQTTSASVGQQQHVVSGSSGQQPQQGAQSSTVQPTTGSPPAAQGVPQSTPPPTQNTPQGGKGQTLSHTGQSGNASRSRRV
- stoichiometry N [2]: 6
